The target in the experiment is T1, recombinant human SFPQ/PSF (human), P23246.
T1 chain: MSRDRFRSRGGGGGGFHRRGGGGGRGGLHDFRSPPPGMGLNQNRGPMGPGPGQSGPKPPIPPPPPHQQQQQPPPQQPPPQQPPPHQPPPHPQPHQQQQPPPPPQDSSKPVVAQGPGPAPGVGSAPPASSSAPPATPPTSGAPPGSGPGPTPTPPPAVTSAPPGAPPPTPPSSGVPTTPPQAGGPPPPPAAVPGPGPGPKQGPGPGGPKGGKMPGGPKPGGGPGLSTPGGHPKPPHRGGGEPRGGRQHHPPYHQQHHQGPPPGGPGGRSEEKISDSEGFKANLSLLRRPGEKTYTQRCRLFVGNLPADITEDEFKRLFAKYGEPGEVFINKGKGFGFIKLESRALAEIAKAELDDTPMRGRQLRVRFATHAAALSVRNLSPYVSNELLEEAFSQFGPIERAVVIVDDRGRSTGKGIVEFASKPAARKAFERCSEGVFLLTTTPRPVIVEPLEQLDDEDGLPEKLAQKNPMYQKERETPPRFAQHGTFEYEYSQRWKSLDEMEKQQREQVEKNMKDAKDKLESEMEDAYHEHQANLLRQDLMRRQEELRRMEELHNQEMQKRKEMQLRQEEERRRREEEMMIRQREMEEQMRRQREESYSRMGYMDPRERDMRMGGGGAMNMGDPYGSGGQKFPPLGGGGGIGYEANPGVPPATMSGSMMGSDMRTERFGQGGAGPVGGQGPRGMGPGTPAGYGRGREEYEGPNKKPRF
Nature of the experiment: SEC. Particulars: remark: other sources report otherwise.

B1: recombinant human SFPQ/PSF, P23246 1-707 (natural protein)
chain: T1 chain
Broadly, the stoichiometry N is the number of molecules, sites or subunits per partner or assembly. For B1, the stoichiometry N is 2.

These data come from publication PMC6101577.
